{
  "source": "patent US20160017055A1",
  "about": "(Takeda / Millennium, published 2016)",
  "molecular_target": "T1, plasma kallikrein Mutant 2 (catalytic domain; R551A, Q553A, Y555A, T558A, R560A) (human, UniProt P03952 391-638)",
  "T1 construct": "Mutations in a subsite of the active site (printed 'S subsite')",
  "T1 sequence (P03952 391-638 C503S/R551A/Q553A/Y555A/T558A/R560A limits assumed)": "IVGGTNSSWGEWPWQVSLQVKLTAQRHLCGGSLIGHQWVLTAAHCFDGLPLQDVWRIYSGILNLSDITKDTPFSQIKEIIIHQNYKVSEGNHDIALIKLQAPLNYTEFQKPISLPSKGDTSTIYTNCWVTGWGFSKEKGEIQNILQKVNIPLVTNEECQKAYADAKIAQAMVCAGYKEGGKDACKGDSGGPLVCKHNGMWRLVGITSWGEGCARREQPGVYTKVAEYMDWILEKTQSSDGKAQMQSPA",
  "assay": "Ki,app; inhibition of PKal catalytic domain activity, Morrison fit",
  "experimental": "Briefly, PKal and a Fab at various concentrations are incubated together for 1 hour at 30° C. A substrate peptide (cleavable by PKal) is then added to this PKal-Fab mixture. The rate of substrate peptide cleavage/proteolysis is then measured, and plotted against the concentrations of the Fab. This plot is then fit to the Morrison equation, which calculates the K_{i,app} value.\nThe inhibitory activity of X₁₁₅-F02 against the wild-type PKal and the mutants were carried out using the method described in Example 2 above and the K_{i,app} values were determined.",
  "data": [
    {"binder": "X115-F02 (antibody, human IgG1, kappa, V domains shown) VH: EVQLLESGGGLVQPGGSLRLSCAASGFTFSHYIMMWVRQAPGKGLEWVSGIYSSGGITVYADSVKGRFTISRDNSKNTLYLQMNSLRAEDTAVYYCAYRRIGVPRRDEFDIWGQGTMVTVSS VL: DIQMTQSPSTLSASVGDRVTITCRASQSISSWLAWYQQKPGKAPKLLIYKASTLESGVPSRFSGSGSGTEFTLTISSLQPDDFATYYCQQYNTYWTFGQGTKVEIKR", "values": [
      {"measurement": "fold reduction of inhibitory potency (Ki,app) against wild-type PKal", "value": "~65", "unit": "fold"}
    ]}
  ]
}
